The data set deals with the molecule itself. The experiment in a line: SEC-MALS; data not shown; purified IRF-3 RD in various buffers, including 10 mM sodium phosphate pH 7 or buffer A (50 mM sodium phosphate pH 8, 300 mM NaCl, 10 mM imidazole); the method is told only in general (SEC-MALS in various buffers).

B1: IRF-3 RD (regulatory domain of IRF-3, residues 175-427, N-terminal hexahistidine tag; IRF-3 RDHN) (domain or fragment, human, UniProt Q14653 175-427, looked up)
chain: SLDNPTPFPNLGPSENPLKRLLVPGEEWEFEVTAFYRGRQVFQQTISCPEGLRLVGSEVGDRTLPGWPVTLPDPGMSLTDRGVMSYVRHVLSCLGGGLALWRAGQWLWAQRLGHCHTYWAVSEELLPNSGHGPDGEVPKDKEGGVFDLGPFIVDLITFTEGSGRSPRYALWFCVGESWPQDQPWTKRLVMVKVVPTCLRALVEMARVGGASSLENTVDLHISNSHPLSLTSDQYKAYLQDLVEGMDFQGPGES
notes: Human IRF-3, regulatory domain, residues 175-427; Dimer or monomer according to the buffer (monomer in buffers C and D); Also made uniformly 15N-labelled for NMR; source: E. coli Rosetta [DE3], purified (Talon IMAC, Hi-Trap Q, Superdex 200); not shown: His6, N-terminal, kept
In the case of B1, the “stoichiometry N” value worked out at 2.

The term stoichiometry N denotes the number of molecules, sites or subunits per partner or assembly.
